Assay results published in patent US20180155451A1 (published 2018).
Like-named read-outs stand apart in the source and are kept apart here.

T1: FcgRIIa R (human, UniProt P12318 34-217)
T1 construct: extracellular domain; also called FcγRIIa R; FcγRIIa type R; not shown: His tag attached to the C terminus
T1 sequence (looked up): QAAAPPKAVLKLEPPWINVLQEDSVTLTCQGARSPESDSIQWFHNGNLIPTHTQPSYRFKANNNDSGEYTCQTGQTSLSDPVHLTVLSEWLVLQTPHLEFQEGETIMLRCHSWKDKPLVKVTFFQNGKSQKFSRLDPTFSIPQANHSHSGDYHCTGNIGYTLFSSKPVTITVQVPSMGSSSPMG

T2: FcgRIIa H (human, UniProt P12318 34-217)
T2 construct: extracellular domain; also called FcγRIIa H; FcγRIIa type H; not shown: His tag attached to the C terminus
T2 sequence (looked up): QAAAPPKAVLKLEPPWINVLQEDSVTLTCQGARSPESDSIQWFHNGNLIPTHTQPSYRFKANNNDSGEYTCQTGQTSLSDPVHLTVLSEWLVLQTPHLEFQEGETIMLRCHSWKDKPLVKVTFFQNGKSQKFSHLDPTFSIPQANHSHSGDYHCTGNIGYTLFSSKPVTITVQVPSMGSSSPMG

T3: FcgRIIb (human, UniProt P31994 43-217)
T3 construct: extracellular domain; Expressed in FreeStyle293 cells and purified; used as analyte in Biacore; also called FcγRIIb; CD32B; not shown: His tag attached to the C terminus
T3 sequence (looked up): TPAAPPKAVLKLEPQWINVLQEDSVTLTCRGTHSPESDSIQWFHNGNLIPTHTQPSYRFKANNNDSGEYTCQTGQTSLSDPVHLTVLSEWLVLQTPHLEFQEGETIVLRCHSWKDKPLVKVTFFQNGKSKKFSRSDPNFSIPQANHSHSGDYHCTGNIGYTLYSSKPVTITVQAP

B1: GpH7-A5/GpH7-TA45/GpL16-k0 (antibody, human IgG1, kappa)
heavy 1: not shown
heavy 2: QVQLVQSGAEVKKPGASVTVSCKASGYTFTDYEMHWIRQPPGEGLEWIGAIDPKTGDTAYSESFQDRVTLTADKSTSTAYMELSSLTSEDTAVYYCTRFYSYTYWGQGTLVTVSSASTKGPSVFPLAPSSKSTSGGTAALGCLVKDYFPEPVTVSWNSGALTSGVHTFPAVLQSSGLYSLSSVVTVPSSSLGTQTYICNVNHKPSNTKVDKKVEPKSCDKTHTCPPCPAPEYLWGPSVFLFPPKPKDTLMISRTPEVTCVVVDVSHEDPEVKFNWYVDGVEVHNAKTKPREEQYNATYRVVSVLTVLHQDWLNGKEYKCKVSNKALPAPIEKTISKAKGQPREPQVYTLPPSRDELTKNQVSLTCLVKGFYPSDIAVEWESNGQPENNYKTTPPVLDSDGSFFLYSKLTVDKSRWQQGNVFSCSVMHEALHNHYTQESLSLSP
light: DIVMTQSPLSLPVTPGEPASISCQASESLVHSNRNTYLHWYLQKPGQSPQLLIYKVSNRFSGVPDRFSGSGSGTDFTLKISRVEAEDVGVYYCSQNTHVPPTFGQGTKVEIERTVAAPSVFIFPPSDEQLKSGTASVVCLLNNFYPREAKVQWKVDNALQSGNSQESVTEQDSKDSTYSLSSTLTLSKADYEKHKVYACEVTHQGLSSPVTKSFNRGEC
notes: Heterodimerized anti-glypican-3 IgG1 variant
B2: H240-Kn032/H240-Hl032/L73-k0 (antibody, human IgG1, kappa)
heavy 1: QDQLVQSGAEVKKPGASVKVSCKASGFNIKDTYIQWVRQAPGQGLEWMGRIDPLRKQTKYREKFEGRVTITADTSTNTAYMELSSLRSEDTAVYYCVRSGREFDYWGQGTLVTVSSASTKGPSVFPLAPSSKSTSGGTAALGCLVKDYFPEPVTVSWNSGALTSGVHTFPAVLQSSGLYSLSSVVTVPSSSLGTQTYICNVNHKPSNTKVDKKVEPKSCDKTHTCPPCPAPELLGGPDVFLFPPKPKDTLMISRTPEVTCVVVDVSHEDPEVKFNWYVDGVEVHNAKTKPREEQYNSTYRVVSVLTVLHQDWLNGKEYKCKVSNKALPLPEEKTISKAKGQPREPQVCTLPPSRDELTKNQVSLWCLVKGFYPSDIAVEWESNGQPENNYKTTPPVLDSDGSFFLYSKLTVDKSRWQQGNVFSCSVMHEALHNHYTQKSLSLSP
heavy 2: QDQLVQSGAEVKKPGASVKVSCKASGFNIKDTYIQWVRQAPGQGLEWMGRIDPLRKQTKYREKFEGRVTITADTSTNTAYMELSSLRSEDTAVYYCVRSGREFDYWGQGTLVTVSSASTKGPSVFPLAPSSKSTSGGTAALGCLVKDYFPEPVTVSWNSGALTSGVHTFPAVLQSSGLYSLSSVVTVPSSSLGTQTYICNVNHKPSNTKVDKKVEPKSCDKTHTCPPCPAPELLGGPDVFLFPPKPKDTLMISRTPEVTCVVVDVSHEDPEVKFNWYVDGVEVHNAKTKPREEQYNSTYRVVSVLTVLHQDWLNGKEYKCKVSNKALPLPEEKTISKAKGQPREPQVYTLPPSRCELTKNQVSLSCAVKGFYPSDIAVEWESNGQPENNYKTTPPVLDSDGSFFLVSKLTVDKSRWQQGNVFSCSVMHEALHNHYTQKSLSLSP
light: DIQMTQSPSSLSASVGDRVTITCRASQDIHKYIAWYQQKPGQAPRLLIQYTSTLQPGVPSRFSGSGSGTDYTFTISSLQPEDIATYYCLQYEQLRTFGGGTKVEIKRTVAAPSVFIFPPSDEQLKSGTASVVCLLNNFYPREAKVQWKVDNALQSGNSQESVTEQDSKDSTYSLSSTLTLSKADYEKHKVYACEVTHQGLSSPVTKSFNRGEC
notes: Anti-EREG IgG1 called homodimerized: S239D/A330L/I332E in both H chains, on the knobs-into-holes pair Kn033/Hl033

Key:
[1] = biological target: T4, FcγRIIIa extracellular domain with C-terminal His tag (human, UniProt P08637 17-208); assay: SPR (Biacore), antibody captured on antigen peptide chip, FcγR as analyte
T4 construct: extracellular domain; also called FcgRIIIa; CD16A
T4 sequence (P08637 17-208): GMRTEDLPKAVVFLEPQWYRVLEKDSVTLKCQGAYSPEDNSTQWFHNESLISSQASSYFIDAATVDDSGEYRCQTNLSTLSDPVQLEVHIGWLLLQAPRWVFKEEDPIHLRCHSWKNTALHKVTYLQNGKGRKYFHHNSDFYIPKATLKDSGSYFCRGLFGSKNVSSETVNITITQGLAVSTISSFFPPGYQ
Protocol: Specifically, GpH7-TA7 and GpH7-TA45 (SEQ ID NO: 32) resulting from the introduction of L234Y, G236W, and S298A into GpH7-A5 and GpH7-B3, respectively, were prepared according to the method described in Reference Example 1. […] These antibodies were compared for the FcγRIIIa binding according to the method described in Reference Example 2 (Table 10).
Analysis of interaction between objective antibody and the FcγR was carried out using Biacore T100 (GE Healthcare). HBS-EP+ (GE Healthcare) was used as the running buffer, and the measurement temperature was set to 25° C. Chips produced by immobilizing the antigen peptide by the amine coupling method to a Series S Sencor Chip CM5 (GE Healthcare), or alternatively, chips produced by allowing preliminarily biotinylated antigen peptides to interact with and immobilize onto a Series S Sensor Chip SA (certified) (GE Healthcare) were used. Antibodies of interest were captured onto an antigen peptide-immobilized chip, and allowed to interact to each FcγR diluted with running buffer. To regenerate and repeatedly use the chip, the antibodies captured on the chip were washed off by reacting 10 mM glycine-HCl, pH 1.5.

FcgRIa [2] = biological target: T5, FcgRIa (human, UniProt P12314 16-292); assay: SPR (Biacore), antibody captured on chip, FcgR extracellular domain as analyte
T5 construct: extracellular domain; Expressed in FreeStyle293 cells and purified; used as analyte in Biacore; also called FcγRIa; FcγRI; not shown: His tag attached to the C terminus
T5 sequence (P12314 16-292): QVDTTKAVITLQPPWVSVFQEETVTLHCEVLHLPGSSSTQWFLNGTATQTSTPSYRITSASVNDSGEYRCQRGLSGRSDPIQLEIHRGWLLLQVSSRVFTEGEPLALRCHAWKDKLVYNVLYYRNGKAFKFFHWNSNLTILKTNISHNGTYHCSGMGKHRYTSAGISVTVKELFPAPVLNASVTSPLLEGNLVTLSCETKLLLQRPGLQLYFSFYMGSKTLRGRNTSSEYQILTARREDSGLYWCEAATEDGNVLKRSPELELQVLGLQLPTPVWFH

FcgRIIa R [3] = biological target: T1, FcgRIIa R; assay: as above
FcgRIIa H [4] = biological target: T2, FcgRIIa H; assay: as above
FcgRIIb [5] = biological target: T3, FcgRIIb; assay: as above
FcgRIIIa F [6] = biological target: T6, FcgRIIIa F (human, UniProt P08637 17-208); assay: as above
T6 construct: extracellular domain; also called FcγRIIIa F; not shown: His tag attached to the C terminus
T6 sequence (P08637 17-208): as the sequence (P08637 17-208) above

FcgRIIIa V [7] = biological target: T7, FcgRIIIa V (human, UniProt P08637 17-208); assay: as above
T7 construct: extracellular domain; also called FcγRIIIa V; not shown: His tag attached to the C terminus
T7 sequence (P08637 17-208 F176V limits assumed): as the sequence (P08637 17-208) above, with F160V counted along it

FcgRIa [8] = biological target: T5, FcgRIa; assay: as above; remark: listed apart in the source
Protocol: (§1) H240-Kn113 (SEQ ID NO: 92) resulting from introduction of Y234E and Y235N into H240-Kn072, H240-Kn115 (SEQ ID NO: 93) resulting from introduction of S239M into H240-Kn072, and H240-Kn125 (SEQ ID NO: 94) resulting from introduction of Y235Q and S239M into H240-Kn072 were prepared according to the method described in Reference Example 1.
(§2) Analysis of interaction between obj ective antibody and the FcγR was carried out using Biacore T100 (GE Healthcare), Biacore T200, Biacore A100, and Biacore 4000. HBS-EP+ (GE Healthcare) was used as the running buffer, and the measurement temperature was set to 25° C. Chips produced by immobilizing the antigen peptide by the amine coupling method to a Series S sensor Chip CM5 (GE Healthcare), chips produced by allowing preliminarily biotinylated antigen peptides to interact with and immobilize onto a Series S Sensor Chip SA (certified) (GE Healthcare), chips produced by immobilizing Protein L (ACTIGEN, BioVision) to Series S Sencor Chip CM5 (GE Healthcare), or chips produced by immobilizing Protein A/G (Thermo Scientific) to Series S Sencor Chip CM5 (GE Healthcare) were used. Antibodies of interest were captured onto these chips, and allowed to interact to each FcγR diluted with running buffer. To regenerate and repeatedly use the chip, the antibodies captured onto the chip were washed off by reacting 10 mM glycine-HCl, pH 1.5.

FcgRIIa R [9] = biological target: T1, FcgRIIa R; assay: as above; remark: listed apart in the source
Protocol: as §1, §2

FcgRIIa H [10] = biological target: T2, FcgRIIa H; assay: as above; remark: listed apart in the source
Protocol: as §1, §2

FcgRIIb [11] = biological target: T3, FcgRIIb; assay: as above; remark: listed apart in the source
Protocol: as §1, §2

FcgRIIIa F [12] = biological target: T6, FcgRIIIa F; assay: as above; remark: listed apart in the source
Protocol: as §1, §2

FcgRIIIa V [13] = biological target: T7, FcgRIIIa V; assay: as above; remark: listed apart in the source
Protocol: as §1, §2

FcgRIa [14] = biological target: T5, FcgRIa; assay: as above; remark: listed apart in the source
FcgRIIa R [15] = biological target: T1, FcgRIIa R; assay: as above; remark: listed apart in the source
FcgRIIa H [16] = biological target: T2, FcgRIIa H; assay: as above; remark: listed apart in the source
FcgRIIb [17] = biological target: T3, FcgRIIb; assay: as above; remark: listed apart in the source
FcgRIIIa F [18] = biological target: T6, FcgRIIIa F; assay: as above; remark: listed apart in the source
FcgRIIIa V [19] = biological target: T7, FcgRIIIa V; assay: as above; remark: listed apart in the source

Binder | FcγR BINDING ACTIVITY (relative FcγRIIIa binding) [1] | Kd (FcgRIa [2]) [nM] | Kd (FcgRIIa R [3]) [nM] | Kd (FcgRIIa H [4]) [nM] | Kd (FcgRIIb [5]) [nM] | Kd (FcgRIIIa F [6]) [nM] | Kd (FcgRIIIa V [7]) [nM] | Kd (FcgRIa [8]) [nM] | Kd (FcgRIIa R [9]) [nM] | Kd (FcgRIIa H [10]) [nM] | Kd (FcgRIIb [11]) [nM] | Kd (FcgRIIIa F [12]) [nM] | Kd (FcgRIIIa V [13]) [nM] | Kd (FcgRIa [14]) [nM] | Kd (FcgRIIa R [15]) [nM] | Kd (FcgRIIa H [16]) [nM] | Kd (FcgRIIb [17]) [nM] | Kd (FcgRIIIa F [18]) [nM] | Kd (FcgRIIIa V [19]) [nM]
B1 | 225 relative, GpH7-A5/GpH7-B3/GpL16-k0 = 100 |  |  |  |  |  |  |  |  |  |  |  |  |  |  |  |  |  | 
B2 |  | 0.073 | 340 | 690 | 630 | 9.1 | 3.1 | 0.073 | 340 | 690 | 630 | 9.1 | 3.1 | 0.073 | 340 | 690 | 630 | 9.1 | 3.1
